Consider two substances from PMC2749708.

Experiment [1] concerns the target EspFU three-repeat fragment. The experiment can be described thus: AUC + other: binding assays.
Experiment [2] addresses N-WASP GBD (amino acids 214-274) (UniProt O08816).

pKd: −log10 of the molar value.

EspFU three-repeat fragment, sequence (C6UYI3 whole entry, the tested form may be a part): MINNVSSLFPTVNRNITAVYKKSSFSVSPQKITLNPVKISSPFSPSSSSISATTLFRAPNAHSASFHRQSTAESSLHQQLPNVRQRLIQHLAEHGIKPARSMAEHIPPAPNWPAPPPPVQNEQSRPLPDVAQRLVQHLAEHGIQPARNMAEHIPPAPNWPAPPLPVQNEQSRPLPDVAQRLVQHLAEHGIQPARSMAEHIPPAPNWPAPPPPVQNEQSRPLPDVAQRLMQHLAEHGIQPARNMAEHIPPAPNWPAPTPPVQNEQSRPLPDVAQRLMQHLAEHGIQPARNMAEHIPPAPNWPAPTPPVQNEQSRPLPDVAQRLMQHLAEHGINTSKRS
UniProt O08816, sequence (O08816 214-274): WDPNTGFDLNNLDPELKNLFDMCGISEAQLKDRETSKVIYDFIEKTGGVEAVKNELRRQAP

Consider N-WASP GBD (domain or fragment), for which, in experiment [1], the stoichiometry N is 3. For one EspFU repeat (domain or fragment), the negative-log Kd (pKd) in experiment [2] is 7.74.

One may read the stoichiometry N as the number of molecules, sites or subunits per partner or assembly. Usually pKd stands for the Kd on a negative log10 scale, so that one unit is a factor of ten. Low values mean a high Kd, high ones a low Kd.
